Test system: Saccharomyces cerevisiae
Assay: transcriptional activation domain activity (GFP:mCherry ratio, weighted mean of sorted bins, harmonized to initial dataset scale) (arbitrary fluorescence ratio units); higher = stronger transcriptional activation
Conditions: beta-estradiol 1 µM; induction time 4 h
Procedure, shortened: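 The activation activity of each tile is the read-weighted mean of bin median fluorescence, averaged across its barcodes and mapped linearly onto the scale of the initial dataset. Tiles were fused to an estradiol-inducible synthetic transcription factor, barcoded, and integrated at URA3 in yeast diploids carrying a GFP reporter. Induction used 1 uM beta-estradiol in SC for 4 hours at 30 °C, after which cells were sorted into 8 GFP:mCherry bins, and any tile with fewer than 50 reads was dropped.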

Row | Sequence | transcriptional activation domain activity
1 | EARNIVGIKNIDLYKGPLFVFWAPMNPSHVGWNGGMHLYAWRCKLLSNLPYHF | 25600
2 | PVVAPKQPRRRAVAGERYERLAQVGEGTYGKVYKARNTGSGALVALKRIRMEQ | 68200
3 | KCLRLAIHIPLYPLFRTALVLRVQPSNAPLIRSVKDFLIYYLHDLQRFFILSP | 70000
4 | ETEGAEETSDAEGNESAGKQKKRARKSSHASSRSRTGAQNKKSTVEQKSTFRG | 51600
5 | VQLSFYRNKIFLTILNYCSGLFVLLFFFYSLFRSVILQNSSLLMLYCACWIYI | 60600
6 | MGFFFVFYLLLSHCCFSLWVRGFGFFLSHPVFLFYILGGFCLVCFFPFFFPIN | 48900
7 | VSAARKRWIAMVWLFTWWIPTYLLVCCGMKRQDIRMAWREKVAICIVIFWISA | 56200
8 | LLAVDPNVWSHFDIVVLEFSRHYIHFHWKSLLWLVGPVVVWGWMVCTLLVWFI | 49400
9 | VLLLKTLLSPVVVPDLDDHSLVLKQFKTFHWQRKNLTSVINILAQALYSLFAA | 27800
10 | IFASALLVACFIHVKGVLDFSLYILKITCRADLDVDEWRSHFGMGEYVVYVGM | 61400
11 | IHQASIAHHPAQHPQRKAHQHSRGGARPQHESQEATRRLGPRHPAHVAALHRR | 30500
12 | EDENKSKEETQEKKTNEPELNENNKDIAKKGEEEEEEEEADKDNNKTKKKKKN | 27500
13 | CRESRGNRGTGEGGAGEQGKGEQGKGEQGKGEQGNRGRGSRETGEGGAGKQGN | 29800
14 | ESGWIYVSVTTFFTSIALLGVMIACMVLRTHLFIWTVFSPKYLYSMAWSLGQH | 55900
15 | VLAGYVVHVFGGDYFHSFSMTFFTFIWTLLFMGYIFITRDYIPKCYFYWLHIA | 54600
16 | MRNEYYFFTSLSCIFSVLCFVSSFFYLVFSSLVLFFFFFLTGLFYLKFFCWVF | 39400
17 | AAGAAGAKASKAPKASKAAKAPKASGAAGAKKGGKKAGKGAASSGAAKAPAAT | 42400
18 | NSTIPLDFMPRDALHGFDWSEEDDMSDGLPFLKTDPNNNGFFGDGSLLCILRS | 109000
19 | MLFTIVPLLCILHHIVLHPIFPSLFYTHIHLCTFFFFFNSVFFFFMFYILVFN | 50200
20 | LSELSSALDPTQAQYAYARIEYANDTESKRVKFILVIWIGEGTKVMRKARVSI | 37600
21 | TDRGGRRGKDYDPADRRHRRRGSSSSSDDRRRSRSRSKSRTRKAAETAAVAGV | 59200
22 | WRLYMAFRTLKGKLLPCLIEANGLDLFISTFAAIVERVAEVSNLRLTSKLYQA | 44900
23 | YYVPLLASPTFWAVTLPLYCVFVGIQVFFVFLEAAGLSLHLVVIFWWLGWWAG | 53000
24 | MNLDTSPDFVHFFLGFTGGVSILDLYCLFMYTFFDMIQLQLNPFSDFFFPFSL | 62100
25 | LLLLIFAVFLRACDILSSQWLIWWTDGIVLGASHDLNFWKGWYMFIVWISLFF | 54800

Row | Sequence | transcriptional activation domain activity
26 | LHGFDWSEEDDMSDGLPFLKTDPNNNGFFGDGSLLCILRSIGFKPENYTNSNV | 50300
27 | PASRGYDRDRDYRRSPSPRERRERDRSRDRDYDRPRSPAVRATLSSSPAPAAL | 22600
28 | KINQIFGYRSGLGFSIITLDWNQIAYIGSPYVAGSFRWAEANVMIGFMFFYWF | 70300
29 | NITKVAERGERLDSLQDKTDNLAVSAQGFRRGANRVRKVSSVVPFIQHSAHKL | 22000
30 | YVKSRGYKTIIRFFPHEVADLELARACMRGAAREPRQWALRYAALLWLALICM | 68700
31 | WDLLLGIQMSWDAVLDLWPRLWAWFEFLDTYSDILSSLLVYLSDADFSLIWVL | 62800
32 | MSAAEDNKPVEAVEKVEEAPQAEEVPKVEEAPAQEEAGATASEKKDANILKTT | 25700
33 | EAWILHMVVILGVNYLFTFYVWDFSYTDTELWNVTCYWKLGWLLPIPYTLICF | 51000
34 | GDESRIDTKFFFGCVGLSNVVFIWPVLVLFHYLGIERFGLPPSSRIWWLLLLN | 50100
35 | RELKRMVQEAIRDIREKKSTLTVQHLKRLLFRVAALIICTPKCDHDLLHYLVI | 61800
36 | LLSEESLRTMGLRTVKDILLRCASERAILTLVDFPLRVLVMVAQIRTGLWVRN | 36800
37 | MLSVRVVVLFAGHLCFLSSSYVLIRCFGDGFNSFVSFRFSSVWWWYLHTLCTH | 87900
38 | MKHETLFFLFCRSLTRFFPMFGASFFFVLFLDLFVFVFCVVYGYSRFIFFLFV | 50300
39 | GRPAKSQAEEPVEAAPEPKKRDRQANVAPEPVIEEAPVVKKGRGRPKKDAVTV | 29600
40 | VIMCTALGIKSVKFEFANLCLVSIEHIFALFFYPMAVIICPSFLLHIATFFYI | 83900
41 | MYSFRLISLMLLSAIALVAANPLMIRIWPLRGGSLTFNLLLLFRWLDFQFVSH | 59900
42 | GSYTSAARGGKAVQEAIRAMIERKGLELRQKQRKLRQDVVIVMHHATALPGTS | 56300
43 | ISLLTLSFFYCFLGVFLPGFSLSLLPFPLFCFFLAFFLPCFSLSLLPFYPFFF | 56500
44 | TSLRLVMFQITFLDLFFKAYGSNIARLDNNYGFPDKQLPERMVEEVKAIYKIN | 56500
45 | DEGESAAPADSAAQAQHLDATKKGHYKLSSFISHKGPSVHCGHYVSHIKKGDQ | 51800
46 | MGRELVLFIFFFFLFFFPFFFPLLLPLLLSSVRLVDIFLLKKYYLINLSLAYP | 37400
47 | ALCRVAARALDTVRMLSTKVRLMLVHAFRRLEPLDVAFQSRSAVPMMSLGIQL | 66600
48 | QVGRKANQKEEKETEKERTEKDKKQGRVGVGGVAKTAIVAGAWCYVVGVVAEL | 34600
49 | MRSTGLESIKGLGTGYVGICGFIYLCISTYMHFLIPNIPNWIFFLLFLYPFLS | 59300
50 | RKTGGRSKRTTRGEGKKEEGRSPTKERTTKGARRSKEETRAGGRTSQAEERGK | 33900

Row | Sequence | transcriptional activation domain activity
51 | SVEDAADTTVSTDLKAADDATTEAAADDDAPRKKHKKSKSKKDKHRRAAADAE | 11600
52 | MVILLLFFVFRVNFVIVLAVSIPRQASFHVIHRFTYLLRRLQDMLNTTHRYAA | 40500
53 | AAAVEKTEEEKPVAAAAAPAAEKEKAPAAKAKKATTTKKAAAPKKAAAPKAKK | 27700
54 | EALMRRFISKGGFMTSRINWAIQSSGVDYLHLLIVSMEYLIRRFNLNARLAIT | 49400
55 | MYYCLFSFLFFLFAFPCVFLLLFTVFFSPYFFFAGFFFYLSLSLLVCVWTIDE | 41600
56 | PLWLAPNLVTLLGFFCILFNIFLLVILVPDLVGPGPSWLYYSFGLGVWMYSTM | 68600
57 | MSLVLLLFCLYLRCYSVLAMANGVSVLNAADYPFSVMITKPVMCGGALISLDP | 69000
58 | LSYCHRPVFTCCDLYRTCLYCSIFYLLSFPILLPPSISLHIILLFSHTILIIL | 31700
59 | FFSSLFIYSFFVFSFSLSLSLCLLPSFFLSCFLSFFAIYYYLVGFLLLLLLLF | 49100
60 | KNNLWYLPLYLFYLSRVTPAATVVPVFLFFFIFFYFFIFIFYLFLFYLSFSIF | 49900
61 | LYECLKYMLFTFAGSTHTNYMAYLLETIINLELESSPGLKEALLLCLLINLTG | 48700
62 | QHMAQSAQSVMGLEDHNAYGDPDSASRKRSKVSRACDECRRKKVRPRRPANGV | 25800
63 | MAKTRLIETIHTAFCIEFIYQYLIIGYGNPLVLAQIHWSVVCLLACTLLIVFL | 55500
64 | EGEGEEEAVTLKKTKKGRGGEEEAAKKGKKKGDEEDPAWEEAAAKKGKKKGEE | 37800
65 | HWSYYRNGNMIINFFYKEIINIGYLFWFQIYCAWSTAQAIDYVYLLFWNAFWT | 77100
66 | LKALQLGCYNYFLLGGSCVSGPVGLLAGIIRQPLVLFYHFFSVALYAIWLRVA | 81200
67 | LLNVHVCVIYFVGWIVSLFQFCQIAIQQPTLDWVHCLPYILRVLLGFDLVYVT | 66100
68 | EKTKRKKKSATGATKRAGSGEAKPKRQRKKKGRRGESGDEEESGDEEGAERRA | < 6570
69 | LIPTEGGELALGGAPLEDEDESTSDEEETPKASFQARLERLRKRMDGRPIKDI | 26300
70 | MPLPPGISYILKRAPSLLLPGVITYFASKYVVNYCRLTLPRWILCALVLLAKP | 86300
71 | QKVGSDKTPGGGSSQYIWLIVYLSISLLSSVLVATTMLLIYTGSLRASVILHE | 53500
72 | DDSAASHAESKEARDGANEADTSSTGGEADSALKESNTKAERRQDKKEEEASG | 34100
73 | MSLKEDDFGKDNSRNIESYTGRIFDVYIQKDSYSQSALDDMFPEAVVSTAACV | 32700
74 | SLSRIVGRGGAQINQIKEDTEVESLDVNQEGEGDSATVTLKGTKTAVAAAKKA | 21900
